Each substance was assayed against MyBPC1 (Myosin Binding Protein C1) (UniProt Q00872).
Chain of UniProt Q00872 (Q00872 whole entry, the tested form may be a part): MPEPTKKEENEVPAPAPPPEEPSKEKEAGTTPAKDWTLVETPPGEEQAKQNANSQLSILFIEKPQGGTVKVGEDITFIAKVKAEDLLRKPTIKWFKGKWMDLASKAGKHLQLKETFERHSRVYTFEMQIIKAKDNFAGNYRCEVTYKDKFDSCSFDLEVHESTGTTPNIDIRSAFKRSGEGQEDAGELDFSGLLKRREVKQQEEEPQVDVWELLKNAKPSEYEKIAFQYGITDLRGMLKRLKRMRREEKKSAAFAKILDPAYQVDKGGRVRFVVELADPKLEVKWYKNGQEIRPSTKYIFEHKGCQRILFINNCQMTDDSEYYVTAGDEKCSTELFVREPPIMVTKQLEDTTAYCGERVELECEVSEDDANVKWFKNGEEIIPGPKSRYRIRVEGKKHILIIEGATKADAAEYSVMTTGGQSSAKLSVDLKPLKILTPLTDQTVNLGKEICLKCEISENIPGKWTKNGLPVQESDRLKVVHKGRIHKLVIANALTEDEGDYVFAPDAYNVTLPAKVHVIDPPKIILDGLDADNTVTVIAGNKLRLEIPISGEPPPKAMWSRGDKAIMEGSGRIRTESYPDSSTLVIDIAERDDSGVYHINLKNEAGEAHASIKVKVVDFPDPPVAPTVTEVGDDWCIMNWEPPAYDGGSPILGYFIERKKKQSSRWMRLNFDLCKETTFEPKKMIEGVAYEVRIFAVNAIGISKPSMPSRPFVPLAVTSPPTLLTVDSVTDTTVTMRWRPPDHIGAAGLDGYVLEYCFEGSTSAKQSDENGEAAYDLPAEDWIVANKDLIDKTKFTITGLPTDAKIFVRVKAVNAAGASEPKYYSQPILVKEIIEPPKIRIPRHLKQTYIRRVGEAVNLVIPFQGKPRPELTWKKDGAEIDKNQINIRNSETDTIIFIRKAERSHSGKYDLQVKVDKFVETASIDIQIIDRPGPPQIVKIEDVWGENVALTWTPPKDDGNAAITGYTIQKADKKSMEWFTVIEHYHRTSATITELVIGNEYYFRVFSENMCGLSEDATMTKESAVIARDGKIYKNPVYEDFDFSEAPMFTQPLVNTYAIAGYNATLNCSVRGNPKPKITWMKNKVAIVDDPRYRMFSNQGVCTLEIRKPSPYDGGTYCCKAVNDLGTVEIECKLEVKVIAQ
“USP25m ΔUBA (Δ19-58 aa, inclusive) (enzyme)” showed a rescue of HA-MyBPC1 from proteasome degradation in co-transfected HEK293T cells (MyBPC1 level by western blot, rescue by wild-type USP25m = 1) of 3 fold.
With “USP25m ΔUBA-UIM1-UIM2 (Δ19-141 aa, inclusive) (enzyme)” the rescue of HA-MyBPC1 from proteasome degradation in co-transfected HEK293T cells (MyBPC1 level by western blot, rescue by wild-type USP25m = 1) was < 8 fold.
“USP25m ΔUIM1 (Δ96-115 aa, inclusive) (enzyme)” gave a rescue of HA-MyBPC1 from proteasome degradation in co-transfected HEK293T cells (MyBPC1 level by western blot, rescue by wild-type USP25m = 1) of 2 fold.

Reference: paper PMC2679190
